Article PMC11335306

Tests used:
[1] = target: BTV-15-VP5-Δ43-Nhis, seleno-methionyl-derivatised (Bluetongue virus serotype 15); assay: crystal structure; high pH crystal form: 0.09 M sodium formate, 6.6% PGA-LM, 0.1 M Tris (pH 9.0), 20 °C; space group P1, nine subunits in the asymmetric unit; Se-Met protein
[2] = target: BTV-15-VP5-Δ43-Nhis, unlabelled (Bluetongue virus serotype 15); assay: crystal structure; low pH crystal form: 1.0 M sodium chloride, 0.1 M Tris (pH 6.0), 20 °C; space group H3; native protein

Substance	stoichiometry N [1]	stoichiometry N [2]
BTV-15-VP5-Δ43-Nhis, seleno-methionyl-derivatised (domain or fragment)	3	–
BTV-15-VP5-Δ43-Nhis, unlabelled (domain or fragment)	–	3
